Assay results taken from patent US20240342704A1 (BERKELEY LIGHTS, published 2024).

Target: T1, HLA-A*02:01 MHC Class I complex (biotinylated) (human, biotinylated)
T1 construct: The MHC molecule as the partner of the peptide in the groove; It was captured on streptavidin DynaBeads; also called pHLA; pMHC
Assay: pMHC on streptavidin beads held in T cell culture media at 37 C for 0-48 h; W6/32-APC MFI by flow cytometry fitted to an exponential decay
Procedure: To wells of a 96-well, round-bottom microplate, 0.2 mL of T Cell Culture Media (Advanced RPMI, 10% Human AB Serum, 1 mM GlutaMax) was added and equilibrated to 37° C. in a standard tissue culture incubator. To three wells each, four microliters of each pHLA-beads was added to a well. The process of adding beads to wells was repeated at time intervals resulting in beads that were held in the media at 37° C. for 48, 32, 24, 16, 8, 4, 2, and 1 hr. The plate was centrifuged at 400 g for 5 minutes, and the media removed by flicking the plate. A sample of beads held at 4° C. for the duration of the time course was then added to three wells to create the 0 hr time point.
An APC-conjugated, conformationally sensitive antibody which only recognizes pMHC molecules in the folded, complex conformation (Clone W6/32, Biolegend) was then added to each well. The antibody was diluted 50-fold from the manufacturer stock into Assay Buffer, and 0.05 mL of antibody mixture was added to each well. […]
Antibody binding to the beads was then detected on a FACSCelesta with High-Throughput Sampler (BD Biosciences). […] Approximately 25,000 bead events were recorded for each sample. The Median Fluorescence Intensity (MFI) in the APC channel for the pHLA-beads in each sample was then recorded. […] The half-lives for the pHLA complexes were then calculated from the fitted decay constant.

half-life	Binder
~0.5 h	SLLPIMWQLY (Synthetic 10-mer peptide; also called Non-Immunogenic TCL1-derived peptide) [TCL1-derived peptide antigen SLLPIMWQLY (SEQ ID NO: 6)]
~17 h	SLYSYFQKV (Synthetic 9-mer peptide, dissolved in DMSO and diluted in PBS for the exchange reaction; also called Immunogenic SLC45A2-derived peptide; SLC45A2 antigen) [SLC45A2-derived peptide antigen SLYSYFQKV (SEQ ID NO: 5)]
